Where “and” joins values, the source holds several entries; their conditions need not be identical. Identical values can stand only once. Values belong to the molecule of their own block, whether it stands above or below them.
Columns and labels:
[1] = target: IL-17 receptor (immobilised receptor of the first BIAcore experiment of Example 8) (UniProt Q96F46); assay: BIAcore SPR; IL-17 (R&D) at 25 ug/mL over immobilised receptor
[2] = target: IL-17 receptor (immobilised receptor of the first BIAcore experiment of Example 8) (UniProt Q96F46); assay: BIAcore SPR; conditioned CHO supernatant over immobilised receptor; IL-20 concentration estimated ~25 ug/mL; pC4 vector control medium ~20 RU

- binding response (RU) [1]: 60 RU
Molecule: recombinant human IL-17 (R&D Systems) (from UniProt Q16552 20-155) (ligand)

- binding response (RU) [2]: 115 RU and 65 RU
B1: recombinant human IL-20 expressed in CHO cells (ligand)
chain: RSPKSKRKGQGRPGPLAPGPHQVPLDLVSRMKPYARMEEYERNIEEMVAQLRNSSELAQRKCEVNLQLWMSNKRSLSPWGYSINHDPSRIPVDLPEARCLCLGCVNPFTMQEDRSMVSVPVFSQVPVRRRLCPPPPRTGPCRQRAVMETIAVGCTCIF

— US20040096935A1
